Source: patent US20100322948A1, “Bone morphogenetic protein (BMP)-binding domains of proteins of the repulsive guidance molecule (RGM) protein family and functional fragments thereof, and use of same” (ABBOTT GMBH & CO. KG, priority 2007, published 2010)
Ends that are not written are not given here.

T1: BMP-4 (Homo sapiens, UniProt P12644)
T1 construct: purchased R&D Systems 314-BM
T1 sequence (P12644 293-408): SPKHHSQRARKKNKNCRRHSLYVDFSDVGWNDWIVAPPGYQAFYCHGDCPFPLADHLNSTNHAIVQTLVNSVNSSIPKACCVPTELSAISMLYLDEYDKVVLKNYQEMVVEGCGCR

T2: Recombinant human BMP-4 (human, UniProt P12644 293-408)
T2 construct: Bought protein; also called hBMP-4
T2 sequence (looked up): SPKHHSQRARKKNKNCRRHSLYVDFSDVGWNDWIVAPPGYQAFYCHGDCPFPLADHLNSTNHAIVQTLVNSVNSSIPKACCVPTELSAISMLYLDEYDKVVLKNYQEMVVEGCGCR


What was measured:
[1] = target: T1, BMP-4; test: In vitro interaction test, variant A: immobilized BMP-4, detection of binding of RGMA-Fc fusion proteins; details: Working Example 3, FIG. 5; detection anti-human-Fc or anti-Myc
Description: Test Method 4: In Vitro Interaction Test for Determining the Interaction between RGMA and BMP-2 and -4
The interaction tests were carried out as described below:
Variant A: Immobilization of the BMP-2/ or -4 Protein and Detection of the Binding of Various RGMA-Fc Fusion Proteins
1. Plate: • Immunoplate Cert. MaxiSorp F96 (Nunc, 439454)
Recombinant human BMP-2, Catalog No.: 355-BM, Company: R&D Systems; Recombinant human RGM A, R&D Systems; Prod. #2495-RM, or
Recombinant human BMP-4, Catalog No.: 314-BM, Company: R&D Systems; • Concentration: 10 μg/mL • Volume used: 2.5 μg/mL in Na2CO3; addition: 50 μL per well • 1 hour at 37° C. in damp chamber
3. Washing step: • Wash 3× with PBS/[…] Tween 20
4. Blocking: • 3% BSA in PBS/0.02% Tween, 1 hour at 37° C. in damp chamber; addition: 200 μL per well
RGMA-Fc fragments, • 1 μg/mL initial concentration, then dilution down to 1:2 using PBS/0.02% Tween20 • […] • 1 hour at 37° C. in damp chamber
6. Washing step: • Wash 3× with PBS/0.02% Tween 20
Biotin anti-human Fc (R&D-Systems), Catalog No.: 709065; 1 mg/mL; • 1:200 in 0.6% BAS/PBS-T (0.02% Tween) • Addition: 50 μL per well • 1 hour at 37° C. in damp chamber
8. Secondary antibody: Strep. POD (Roche); Catalog No.: 11089153001 • 500 U; 1:5000 in 0.6% BAS/PBS-T (0.02% Tween) • Addition: 50 μL per well • 1 hour at 37° C. in damp chamber
9. Washing step: • Wash 3× with PBS/0.02% Tween 20
ImmunoPure TMB substrate kit; Pierce, #34021 • Development period: approximately 1-30 minutes • 1:1 mixture of […]; addition: 50 μL per well
11. Stop: • 2.5 M H2SO4; addition: 50 μL per well
The test was conducted according to test method 4, variant A above, with immobilization of BMP-4 (1 mg/mL). The binding of the fusion proteins was detected using anti-human-Fc or anti-Myc anti-rabbit (Invitrogen) antibodies.
The test was conducted according to test method 4, variant A above, with immobilization of BMP-4 (1 mg/mL). The binding of the fusion proteins was detected using anti-human-antibodies.

[2] = system: BMP signalling (rhBMP-2-induced luciferase activity); test: BRE-Luc assay on BMP signalling in BMP-responsive C3H10-B12 cells; assay type: cell-based; details: combined with rhBMP-2 at 50 ng/ml, 24 h
Description: Evaluation of the Agonistic or Antagonistic Effect of h RMG A on BMP Signalling using BRE-Luc Assay
a) Materials: • Three compounds were provided at 200 μg/ml.
fragment #788 (IgK/hRGM A 47-422/Xa cleavage site/Fc) • recombinant h BMP-2 (from CHO cells; #355-BM) and monoclonal anti-human BMP2/4 antibodies (#MAB3552) were obtained from R&D Systems Europe, Lille, France • Bright-Glo Luciferase assay kit were purchased from Promega
All experiments were performed in triplicate, and were repeated at two separate times.

[3] = target: T2, Recombinant human BMP-4; test: ELISA, BMP-4 immobilised, fragment titrated, detection with anti-human Fc antibody
From the text: The binding of the fusion proteins was detected using anti-human-antibodies.

[4] = system: SH-SY5Y cells; test: Neurite growth assay using SH-SY5Y cells (test method 1); assay type: cell-based, human; details: FIG. 7A
From the text: Test Method 1: Illustration of the Effect of RGM Peptides in the Neurite Growth Assay, Using SH-SY5Y Cells
SH-SY5Y cells are human neuroblastoma cells. Blastomas are embryonic tumors which originate during tissue and organ formation. The origin of the blastoma cells is frequently unknown, since in early embryonic states the differentiation of many cells is still premature; i.e., the blastoma cells are a heterogeneous cell population. The cells of a neuroblastoma, referred to as neuroblasts, originate from the neural crest (structure of the embryonic state) from the autonomous nerve tissue, and are practically arrested in an immature stage. The cells in the present case originated from a clonal subculture of the neuroepitheliomal cell line SK-N-SH which were isolated in 1970 in a bone marrow biopsy of a child with metastases of the neuroblastomas.
Culture Medium for SH-SY5Y Cells (ECACC No. 94030304)
The medium was sterile-filtered using a Nunc 500-mL filter, and was stored in a refrigerator at 4° C. until used. Before use, the medium was heated to 37° C. in a water bath.
SH-SY5Y cells are epithelial, neuron-like cells which slowly adherently grow in a monolayer and never attain a confluence of 100% (maximum 80%). The cell culture was split 1:3 two times per week. Isolation of the cells requires incubation with trypsin for 1-3 minutes in an incubator.
Since this is a population of still immature precursor cells, it is possible to differentiate the cells using retinoic acid, so that a certain percentage of the cells acquire neurite-like extensions. For this purpose the culture was incubated in the medium with 10 μM retinoic acid directly in the culture dish or flask, depending on the test, for 3 days.
Microtiter plates (96-well) (containing collagen I-coated plates) were additionally coated with the hRGM A fragments. After washing two times with PBS the cells were seeded. […] In the quantitative analysis the SH-SY5Y cells grown on hRGM A fragments were compared to SH-SY5Y grown on collagen I alone. The neurite length of the cells was automatically measured and used for the analysis. […]

[5] = system: NTera-2 cells; test: Neurite growth test using NTera-2 cells (test method 2); assay type: cell-based, human; details: FIG. 7B
From the text: Test Method 2: Illustration of the Effect of RGM Peptides in the Neurite Growth Test, Using NTera-2 Cells
The human pluripotent cancer cell line NTera2 (DSMZ ACC527) is established as a cell culture model. Neurites grow from cell aggregates and form a corona of neurites around the particular aggregate.
NTera-2 cells are human embryonic teratocarcinoma cells. A carcinoma is a cancerous tumor, whereas a teratoma or teratocarcinoma is a mixed tumor of the germ cells composed of various differentiated and undifferentiated tissues, and therefore, the same as for the SH-SY5Y culture, comprises a heterogeneous population. The tumor is usually present in an encapsulated form in the various types, such as hair, skin, teeth, muscle, and nerve tissue. The tumors typically originate in the ovaries, testes, abdominal cavity, or brain. The cell line was cloned from the Tera-2 line, obtained from a metastatic teratocarcinoma in a person.
NTera-2 cells are epithelial, adherently growing cells which form a monolayer. Due to the large number of granular particles which they contain, NTera-2 cells may be easily differentiated from the other cells. The cells were cultivated by 1:5 splitting twice a week. The cells of this mixed culture may be differentiated using retinoic acid in neuronal cells.
Culture Medium Fur Growth […]
In order to differentiate the cells it was necessary to introduce antibiotic into the culture medium of the cell line due to the fact that the cells remained in the same culture flask for three weeks. Previously, the undifferentiated culture had been detrypsinated and the cell count determined using a Neubauer counting chamber. […] 25 μL retinoic acid (10 μM) was readded to the medium under dim light conditions. […]
The culture was stored in an incubator at 37° C. with 5% CO2 gassing, and the medium was changed at the beginning and at the end of the week. […] After three weeks the cells were differentiated and were ready for use in experiments. […]
Different plate formats were used for the tests. For the isolation of protein, 6-well plates were necessary for recovering a sufficient quantity. […]

Row | Molecule | binding to immobilized BMP-4 [1] | effect on BMP-2-induced luciferase activity [2] | binding result [3] | inhibition of neurite growth [4] | inhibition of neurite growth [5]
1 | fragment #785: Fc fusion protein of human RGM A amino acids 47-90 (PCKILKCNSEFWSATSGSHAPASDDTPEFCAALRSYALCTRRTA; cysteine pairing not given here; also: Fc fusion protein (dimerising Fc)) | Significant concentration-dependent binding | did not significantly modify |  |  | 
2 | 316-386-Fc (#790) (Fc fusion, also called fragment #790; not shown: Factor Xa site from the vector; human IgG Fc (hIgG lambda hc 257-Stop)) LRGCPLNQQIDFQAFHTNAEGTGARRLAAASPAPTAPETFPYETAVAKCKEKLPVEDLYYQACVFDLLTTG |  |  | binds |  | 
3 | fragment #790: Fc fusion protein of human RGM A amino acids 316-386 (protein, left off: small tags and cut ends; a dimerising Fc or GST) LRGCPLNQQIDFQAFHTNAEGTGARRLAAASPAPTAPETFPYETAVAKCKEKLPVEDLYYQACVFDLLTTG | Significant concentration-dependent binding |  |  | inhibit the neurite growth | inhibit the neurite growth
4 | PCKILKCNSEFWSATSGSHAPASDDTPEFCAALRSYALCTRRTA (Fc fusion, Expressed in HEK293F cells; IgK leader left out; also called fragment 47-90; not shown: Factor Xa site from the vector; human IgG Fc (hIgG lambda hc 257-Stop)) [47-90-Fc (#785)] |  |  | binds |  | 
